Columns and labels:
S. suis strain 7997 [1] = experiment: PlySs2 storage stability, killing effectiveness; type: physicochemical, Streptococcus suis
Method: FIG. 9. The stability of purified PlySS2 was determined by evaluating killing effectiveness against strain 7997 after storage at 37° C. for up to 48 hours in buffer.
FIG. 10. Killing effectiveness, assessed by OD600 growth of strain 7997 upon treatment with PlySs2 lysin after lysin storage at −80° C. for up to 7 months in buffer.
The stability of purified PlySs2 lysin was determined upon maintenance at 37° C. for up to 48 hours in buffer. The PlySs2 lysin is >90% stable up to 24 hours and maintains at least 50% activity after 48 hours.
Stability of the PlySS2 lysin was evaluated on freezer storage at −80° C. The PlySs2 lysin retains essentially 100% activity on storage in buffer for up to at least 7 months at −80° C. (FIG. 10).

[2] = tested on: purified S. suis peptidoglycan; experiment: PlySs2 bond specificity, mass spectroscopy of digest; type: biochemical, Streptococcus suis; settings: overnight at 37° C.
Method: Investigations to determine the bond catalyzed by PlySs2 lysin have been undertaken. PlySs2 was incubated with purified S. suis peptidoglycan stripped of lipotechoic acid and carbohydrates overnight at 37° C. and the product submitted for mass spectroscopy.

S. suis strain 7997 [3] = experiment: PlySs2 lytic activity at various concentrations, OD600; type: cell-based, Streptococcus suis
Method: FIGS. 15A and 15B (A) PlySs2 has acute lytic activity against S. suis strain 7997 at, or above 8 ug/mL. (B) Activity of PlySs2 assessed in vitro against S. suis strain 5735.
(§1) Readings (OD600) were taken for each well in a spectrophotometer every minute over an hour. The OD density indicates the amount of bacterial cell growth in the microtiter well.
(§2) This activity test was first determined for the pathogenic S. suis strain 7997 with various concentrations of PlySs2 (FIG. 15A). Specific activity of purified PlySs2 lysin was also assessed in vitro against S. suis strain S735 (FIG. 15B). […] Additional results are tabulated below in TABLE 1.

[4] = tested on: methicillin resistant Staphylococcus aureus strains (MRSA); experiment: PlySs2 in vitro growth reduction and killing; type: cell-based
Method: as §1, §2

[5] = tested on: vancomycin intermediate sensitivity Staphylococcus aureus (VISA); experiment: PlySs2 in vitro test, standard MIC analysis; type: cell-based; settings: comparable in vitro tests (FIG. 18)
Method: (§3) FIG. 18. PlySS2 was tested by standard MIC analysis for its ability to kill strains of staphylococci. Included in the testing were resistant staphylococci such as Vancomycin resistant (VRSA), Vancomycin intermediate (VISA) and methicillin resistant (MRSA) staphylococci. The three VRSA strains tested represent half of all known isolates.

[6] = tested on: vancomycin resistant Staphylococcus aureus (VRSA); experiment: PlySs2 in vitro test, standard MIC analysis; type: cell-based; settings: comparable in vitro tests (FIG. 18)
Method: as §3

S. aureus MW2 and 8325 = experiment: Assessment of resistance, incrementally increasing concentrations; type: cell-based; settings: concentration doubled daily up to 4× MIC over an 8-day period
[7] = tested on: cultures from the oral cavities of rats; experiment: Oral cavity microbiota study, clearing zones on lawns; type: cell-based; settings: 6 cultures, 10 μL drops on BHI agar; the cleared culture confirmed as S. aureus
S. suis strain 7997 [8] = experiment: PlySs2 biochemical characterization, OD600 turbidity

B1: PlySs2: S. suis prophage lysin from strain 89/1591, amino acid sequence SEQ ID NO:3 (protein, listed as Streptococcus suis)
chain: MTTVNEALNNVRAQVGSGVSVGNGECYALASWYERMISPDATVGLGAGVGWVSGAIGDTISAKNIGSSYNWQANGWTVSTSGPFKAGQIVTLGATPGNPYGHVVIVEAVDGDRLTILEQNYGGKRYPVRNYYSAASYRQQVVHYITPPGTVAQSAPNLAGSRSYRETGTMTVTVDALNVRRAPNTSGEIVAVYKRGESFDYDTVIIDVNGYVWVSYIGGSGKRNYVATGATKDGKRFGNAWGTFK
Question: What does the source list for B1?
Answer: activity maintained (S. suis strain 7997 [1]; 37° C. in buffer, after 48 hours): at least 50%; stability of purified lysin (S. suis strain 7997 [1]; 37° C. in buffer, up to 24 hours): > 90%; activity retained on freezer storage (S. suis strain 7997 [1]; −80° C. in buffer, up to at least 7 months): ~100%; bond catalyzed (cleavage type) [2]: N-acetylmuramoyl,-L-alanine amidase; concentration with acute lytic activity (S. suis strain 7997 [3]): ≥ 8 µg/mL; activity against MRSA strains [4]: reduction in growth and killing; effectiveness against VISA strains [5]: similarly effective; effectiveness against VRSA strains [6]: similarly effective; development of resistance (4-fold increase in MIC) (S. aureus MW2 and 8325): Neither S. aureus strain developed resistance; clearing zone around PlySs2 drops on lawns of rat oral cavity cultures [7]: only appeared on one culture; NaCl concentration of greatest activity (S. suis strain 7997 [8]; S. suis strain 7997): 0 mM; pH up to which acute activity is shown (S. suis strain 7997 [8]; S. suis strain 7997, Bis-tris propane (BTP) buffer): ≤ 9.7; pH of strongest activity (optimal pH) (S. suis strain 7997 [8]; S. suis strain 7997, phosphate/citrate buffer): 8.0
